These results are taken from PMC11102521.

The target in the data set is Staphylococcal enterotoxin A (SEA) (UniProt P0A0L2 25-257). Nature of the data set: […], Tris-HCl pH 7.4, 2.7 mM KCl, 1 mM CaCl2, 0.5 mM MgCl2; 30 min at 25 °C in 100 µL, […]. Conditions: protein: commercial; tags: biotinylated, immobilized on streptavidin magnetic beads.
Sequence of Staphylococcal enterotoxin A (SEA) (P0A0L2 25-257): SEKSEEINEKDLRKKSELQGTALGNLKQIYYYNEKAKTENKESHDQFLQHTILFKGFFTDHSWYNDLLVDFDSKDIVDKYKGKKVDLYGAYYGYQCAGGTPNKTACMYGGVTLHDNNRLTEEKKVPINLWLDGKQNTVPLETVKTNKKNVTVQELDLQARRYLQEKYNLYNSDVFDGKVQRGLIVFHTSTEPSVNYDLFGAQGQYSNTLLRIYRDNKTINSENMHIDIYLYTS

B1: Apt4 (Aptamer_423283) (ssDNA)
DNA: AGGCCAACTGGATAGCGAATGTTAGTGGACTCGGTTTGGACGTTCTCTCTTCTCGAATGCGAATTCAGCACTACCTTTTGGCAAACGCTAATAAGGG
On to B1, for which the binding result is recorded as “binds”.

B2: Apt1 (Aptamer_301794) (ssDNA)
DNA: AGGCCAACTGGATAGCGAATAGAACTCTGCCGTGGGGTGCAGTTTTAATTGTACGTTCTCGAATTCAGCACTACCTTTTGGCAAACGCTAATAAGGG
Consider B2, for which the binding result is “binds”.

B3: Apt5 (Aptamer_253457) (ssDNA)
DNA: AGGCCAACTGGATAGCGAATTTGCAATCAGCGTGGGTGGGTTTCTTTTGCGTGGTGTGTCGAATTCAGCACTACCTTTTGGCAAACGCTAATAAGGG
The term Kd denotes a measure of binding affinity in units of concentration. A lower Kd goes with a tighter complex. As for B3, the affinity, expressed as Kd, was 13.4 ± 1.86 nM.

B4: Apt2 (Aptamer_207452) (ssDNA)
DNA: AGGCCAACTGGATAGCGAATGTGGCAGTCGGTTTTGACTTGCGCTCTTGCATCATTATTCGAATTCAGCACTACCTTTTGGCAAACGCTAATAAGGG
Consider B4, for which the binding result was “binds”.
